B1: library; numbered along this chain (parent)
chain: MATDAALRRLLRLHRTEIAVAVDSAFPLLHALADHDVVPEDKFQETLHLKEKEGCPQAFHALLSWLLTQDSTAILDFWRVLFKDYNLERYGRLQPILDSFPKDVDLSQPRKGRKPPAVPKALVPPPRLPTKRKASEEARAAAPAALTPRGTASPGSQLKAKPPKKPESSAEQQRLPLGNGIQTMSASVQRAVAMSSGDVPGARGAVEGILIQQVFESGGSKKCIQVGGEFYTPSKFEDSGSGKNKARSSSGPKPLVRAKGAQGAAPGGGEARLGQQGSVPAPLALPSDPQLHQKNEDECAVCRDGGELICCDGCPRAFHLACLSPPLREIPSGTWRCSSCLQATVQEVQPRAEEPRPQEPPVETPLPPGLRSAGEEVRGPPGEPLAGMDTTLVYKHLPAPPSAAPLPGLDSSALHPLLCVGPEGQQNLAPGARCGVCGDGTDVLRCTHCAAAFHWRCHFPAGTSRPGTGLRCRSCSGDVTPAPVEGVLAPSPARLAPGPAKDDTASHEPALHRDDLESLLSEHTFDGILQWAIQSMARPAAPFPS

Variants of: B1
Assay: AIRE transcriptional activation functional score (insulin promoter-GFP; nonsense median 0, synonymous median 1) (normalised score); higher = higher AIRE activity (more reporter activation)
Conditions: with insulin promoter-GFP reporter in HEK293
Procedure: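 Deep mutational scan of full-length human AIRE (codon-optimized cDNA, DT-POPCode NNN libraries over three regions) integrated at a Bxb1 landing pad in HEK293 cells carrying an insulin core promoter-GFP reporter at a Flp-In site. Cells were sorted for the top 10% GFP about 14 days after transfection. Variant frequency log-ratios (select vs non-select, TileSeq) were rescaled so that the nonsense median is 0 and the synonymous median is 1, then averaged over biological replicates.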

AIRE transcriptional activation functional score of substitutions, site by site:
T183: N 1.18, V 0.738, M 0.663, L 0.699, G 0.735, I 0.211, Q 0.469, W 0.659, D 0.425, H 0.652, A 0.69, R 0.948, F 0.248, K 0.924, C 1.48, E 0.451, S 0.952, P 0.392, Y -0.205
G180: H 1.31, I 0.248, D 0.474, S 0.929, M 0.445, N 1.23, W -0.0444, E 0.208, T 0.839, K 1.02, R 1.63, C 1.24, P -1.38, V 0.54, L 0.0432, Y 0.548, F -0.106, A 1.21
Q182: K 1.73, H 1.91, V -0.0151, Y 0.181, P 0.264, N 1.54, A 1.52, I -0.398, C 1.4, F -0.279, M 0.383, T 1.69, R 1.3, S 1.05, E 1.46, W 0.0615, G 0.423, L 0.0585, D 0.345
S168: R 1.36, Q 0.489, H 1.23, V 0.761, M 1.47, I 0.348, K 1.08, T 1.06, W 1.46, L 0.825, Y 1.37, P -0.113, G 0.755, N 0.613
R174: E 0.744, D 0.334, L 0.495, V 0.506, K 0.973, A 0.803, F 1.53, T 0.614, M 0.283, C 0.35, I 0.22, W 2.14, H 0.805, Y 1.09, N -0.393, G 0.531, S 0.758, Q 0.21, P 0.727
Q173: A 0.957, F 1.97, P 1.05, E 0.663, M 2.11, C 1.51, R 1.67, W 1.54, G 0.757, D 0.988, V 1.32, H 0.885, L 1.52, K 1.44, I 1.45, T 1.44, S 1.34, N 1.68, Y 1.93
I181: W 1.14, M 0.958, Q -0.331, K 0.076, H -0.417, R 0.684, G 0.602, D 0.3, Y 1.13, P -1.22, A 0.485, E 0.0205, T 0.242, S 0.834, V 0.788, L 0.717, C 0.211, F 1.59, N 1.53
E171: M 2.07, R 1.22, N 1.05, P 1.23, F 2.29, T 1.52, I 1.63, W 1.93, A 1.77, L 1.59, Q 1.15, K 0.709, H 1.64, G 1.27, V 1.65, C 1.96, Y 1.41, D 0.998, S 1.96
S185: E 0.209, D 0.436, G 0.881, V 0.26, R 0.854, P 0.302, N 0.832, A 0.878, M -0.432, L -0.0826, K 1, C 0.855, H -0.313, W 0.557, T 1.56, Y 0.264, I 0.353, Q 0.746, F 0.468
G178: K 0.788, P 0.532, N 0.294, R 1.49, A 0.405, M 1.65, V 1.28, I 1.74, W 0.64, F 1.08, E 0.493, Y 1.89, S 1.26, T 1.11, Q 0.33, C 1.22, D 0.549, L 1.58
S169: M 0.503, P 1.73, T -0.214, A 0.813, R 0.711, E 0.245, C 0.968, G 1.42, K 1.77, Y 1.62, F 1.46, D 1.22, I 1.2, N 1.18, V 1.35, L 1.7, Q 0.286, W 1.57
P176: T 0.957, F 1.46, I 1.65, L 1.6, M 2.1, A 1.33, H 1.07, K 1.33, V 1.54, C 2.34, S 1.4, R 1.63, Y 1.88, D -0.465, E 0.297, W 1.08, N 0.411, G 0.765
A186: F -0.0353, D 1.11, C 1.29, E 0.734
N179: E 1.14, G 0.991, W -2.31, H 1.97, R 1.52, D 0.42, I 1.15, T 1.79, L 0.991, C 1.26, Q -0.585, A 1.53, Y 1.15, M 1.62, V 1.49, P 1.71, S 0.818, K 1.14, F 0.503
L175: Y 1.5, Q 1.1, H 1.33, N 0.295, D 1.04, M 1.05, K 0.766, W 1.8, P 0.463, V 0.629, E -0.0357, T 0.916, A 0.583, C 0.818, S 0.686, G 0.614, R 1.06, F 1.16, I 0.709
Q172: R 1.46, F 1.82, K 0.844, G 0.609, V 1.18, D 1.14, S 0.645, I 2.08, A 0.74, H 1.81, T 1.56, W 1.71, E 0.286, Y 1.7, P 0.611, M 2.4, N 0.691, L 1.55, C 1.13
L177: F 1.5, D 0.322, I 0.748, C 0.72, P 0.397, M 1.57, Y 1.89, T 0.252, E -0.132, S 0.553, W 2.38, Q 0.719, V 0.75, H 1.01, K 1.09, A 0.839, N 0.575, G -0.4, R 0.707
M184: A 0.129, N 0.0346, R 0.932, P 0.519, S 0.488, I 0.983, L 0.411, W 0.275, Q 0.653, E -0.977, F 0.676, T 0.688, Y 0.481, D -0.962, V 0.51, G 1.01
A170: S 0.78, I 0.784, F 1.69, P 0.929, R 1.29, C 1.24, N 1.2, W 1.84, M 0.0569, G 0.778, T 0.748, D 0.761, V 0.782, H 1.86, E 0.67, L 0.356, Q 0.496, Y 2.08, K 1.97
